Test results as given in the supplement of paper PMC9112550, “Optimization of the antimicrobial peptide Bac7 by deep mutational scanning” (BMC Biology, 2022).

Tested on: Escherichia coli TOP10
Experiment: shrunken log2 fold change of peptide-encoding DNA abundance (4.5 h post-induction vs induction); higher = less antimicrobial activity (less host growth inhibition)
Conditions: time post-induction: 4.5 h; library: site-saturation at positions 5, 18, 19, 20
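Note: peptides expressed intracellularly from a pBAD plasmid library in pooled LB shake-flask culture, induced with 0.3% L-arabinose, DNA abundance read by NGS, three biological replicates, DESeq2 with apeglm shrinkage.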

| Sequence | shrunken log2 fold change |
| --- | --- |
| RRIRTRPPRLPRPRPRPVKGPRP | -0.0154 |
| RRIRKRPPRLPRPRPRPNYTPRP | -0.281 |
| RRIRSRPPRLPRPRPRPAGYPRP | 0.0337 |
| RRIRMRPPRLPRPRPRPCPPPRP | 0.106 |
| RRIRTRPPRLPRPRPRPSLYPRP | -0.522 |
| RRIRLRPPRLPRPRPRPKMYPRP | -0.14 |
| RRIRFRPPRLPRPRPRPQQQPRP | 0.0282 |
| RRIRRRPPRLPRPRPRPQTVPRP | -0.0201 |
| RRIRMRPPRLPRPRPRPSSEPRP | -0.103 |
| RRIRFRPPRLPRPRPRPHQCPRP | -0.315 |
| RRIRARPPRLPRPRPRPSVNPRP | -0.383 |
| RRIRERPPRLPRPRPRPMDRPRP | 0.0196 |
| RRIRRRPPRLPRPRPRPWSPPRP | 0.186 |
| RRIRQRPPRLPRPRPRPYIEPRP | -0.45 |
| RRIRIRPPRLPRPRPRPRFEPRP | 0.131 |
| RRIRHRPPRLPRPRPRPKYLPRP | -0.0216 |
| RRIRFRPPRLPRPRPRPQIWPRP | -0.0457 |
| RRIRWRPPRLPRPRPRPEQQPRP | 1.39 |
| RRIRARPPRLPRPRPRPTDSPRP | 0.00832 |
| RRIRTRPPRLPRPRPRPTYWPRP | -0.00518 |
| RRIRKRPPRLPRPRPRPGEAPRP | 1.09 |
| RRIRDRPPRLPRPRPRPDLNPRP | -0.041 |
| RRIRNRPPRLPRPRPRPGEAPRP | 0.33 |
| RRIRDRPPRLPRPRPRPIPRPRP | -0.187 |
| RRIRMRPPRLPRPRPRPYRAPRP | -0.691 |

| Sequence | shrunken log2 fold change |
| --- | --- |
| RRIRLRPPRLPRPRPRPGFLPRP | 0.0856 |
| RRIRMRPPRLPRPRPRPQWVPRP | 0.0772 |
| RRIRLRPPRLPRPRPRPRACPRP | 0.223 |
| RRIRQRPPRLPRPRPRPHENPRP | -0.0313 |
| RRIRYRPPRLPRPRPRPDRVPRP | -0.234 |
| RRIRCRPPRLPRPRPRPNQDPRP | -0.348 |
| RRIRPRPPRLPRPRPRPKFDPRP | 0.163 |
| RRIRYRPPRLPRPRPRPTYAPRP | 3.45 |
| RRIRLRPPRLPRPRPRPYDLPRP | -0.0724 |
| RRIRQRPPRLPRPRPRPRCDPRP | -0.255 |
| RRIRHRPPRLPRPRPRPRVFPRP | 0.201 |
| RRIRQRPPRLPRPRPRPKILPRP | -0.0155 |
| RRIRERPPRLPRPRPRPNCHPRP | -0.336 |
| RRIRLRPPRLPRPRPRPTRCPRP | -0.119 |
| RRIRRRPPRLPRPRPRPCRFPRP | -0.0495 |
| RRIRIRPPRLPRPRPRPITTPRP | -0.338 |
| RRIRVRPPRLPRPRPRPWPSPRP | 0.143 |
| RRIRIRPPRLPRPRPRPIYSPRP | -0.946 |
| RRIRTRPPRLPRPRPRPVKRPRP | 0.0411 |
| RRIRERPPRLPRPRPRPEPFPRP | -0.0469 |
| RRIRHRPPRLPRPRPRPLEVPRP | -0.184 |
| RRIRERPPRLPRPRPRPCDLPRP | -0.01 |
| RRIRERPPRLPRPRPRPMFRPRP | -0.737 |
| RRIRVRPPRLPRPRPRPLPRPRP | 0.642 |
| RRIRLRPPRLPRPRPRPHFSPRP | -0.189 |

| Sequence | shrunken log2 fold change |
| --- | --- |
| RRIRSRPPRLPRPRPRPVSYPRP | -0.0884 |
| RRIRGRPPRLPRPRPRPHPQPRP | 0.546 |
| RRIRMRPPRLPRPRPRPVQFPRP | 0.276 |
| RRIRSRPPRLPRPRPRPGSVPRP | -0.0129 |
| RRIRERPPRLPRPRPRPGTWPRP | -0.0304 |
| RRIRQRPPRLPRPRPRPTPDPRP | 0.711 |
| RRIRTRPPRLPRPRPRPYDTPRP | -0.661 |
| RRIRFRPPRLPRPRPRPAIHPRP | -0.478 |
| RRIRDRPPRLPRPRPRPLYSPRP | -0.411 |
| RRIRYRPPRLPRPRPRPEADPRP | 0.123 |
| RRIRCRPPRLPRPRPRPNQQPRP | 0.00277 |
| RRIRDRPPRLPRPRPRPPTLPRP | -0.0573 |
| RRIRGRPPRLPRPRPRPYDCPRP | -0.147 |
| RRIRHRPPRLPRPRPRPWTWPRP | -0.00897 |
| RRIRIRPPRLPRPRPRPAAEPRP | 0.197 |
| RRIRARPPRLPRPRPRPRRCPRP | 0.519 |
| RRIRQRPPRLPRPRPRPNAQPRP | 0.0116 |
| RRIRVRPPRLPRPRPRPFPRPRP | 0.0135 |
| RRIRMRPPRLPRPRPRPLPNPRP | 0.098 |
| RRIRVRPPRLPRPRPRPTTGPRP | 0.141 |
| RRIRQRPPRLPRPRPRPCGFPRP | -0.0124 |
| RRIRVRPPRLPRPRPRPMFPPRP | 0.086 |
| RRIRRRPPRLPRPRPRPVQRPRP | 0.254 |
| RRIRMRPPRLPRPRPRPQVVPRP | 0.0936 |
| RRIRVRPPRLPRPRPRPMLMPRP | 0.00342 |

| Sequence | shrunken log2 fold change |
| --- | --- |
| RRIRFRPPRLPRPRPRPYKYPRP | -0.907 |
| RRIRVRPPRLPRPRPRPIQGPRP | 0.0292 |
| RRIRLRPPRLPRPRPRPYTSPRP | -0.33 |
| RRIRCRPPRLPRPRPRPDGTPRP | 0.105 |
| RRIRRRPPRLPRPRPRPTNQPRP | 0.111 |
| RRIRSRPPRLPRPRPRPGDCPRP | 0.0299 |
| RRIRFRPPRLPRPRPRPWNAPRP | -0.84 |
| RRIRTRPPRLPRPRPRPAFVPRP | -0.163 |
| RRIRTRPPRLPRPRPRPQILPRP | -0.105 |
| RRIRMRPPRLPRPRPRPQYIPRP | -0.0206 |
| RRIRARPPRLPRPRPRPESVPRP | 0.886 |
| RRIRARPPRLPRPRPRPSFRPRP | -0.262 |
| RRIRARPPRLPRPRPRPISMPRP | 0.0208 |
| RRIRPRPPRLPRPRPRPQGWPRP | 0.542 |
| RRIRFRPPRLPRPRPRPCMLPRP | -0.591 |
| RRIRFRPPRLPRPRPRPEWMPRP | 0.236 |
| RRIRKRPPRLPRPRPRPFKPPRP | 0.0806 |
| RRIRGRPPRLPRPRPRPDFGPRP | 0.0741 |
| RRIRLRPPRLPRPRPRPKERPRP | -0.00664 |
| RRIRQRPPRLPRPRPRPLFGPRP | 0.107 |
| RRIRPRPPRLPRPRPRPNFHPRP | -0.169 |
| RRIRYRPPRLPRPRPRPMQTPRP | -0.0135 |
| RRIRYRPPRLPRPRPRPGIGPRP | -0.659 |
| RRIRDRPPRLPRPRPRPHFAPRP | -0.103 |
| RRIRFRPPRLPRPRPRPHHIPRP | -0.822 |

| Sequence | shrunken log2 fold change |
| --- | --- |
| RRIRVRPPRLPRPRPRPYWTPRP | -0.366 |
| RRIRWRPPRLPRPRPRPMDMPRP | -0.0589 |
| RRIRLRPPRLPRPRPRPDFMPRP | -0.277 |
| RRIRARPPRLPRPRPRPYAWPRP | -0.129 |
| RRIRSRPPRLPRPRPRPHHLPRP | -0.903 |
| RRIRDRPPRLPRPRPRPLLSPRP | 0.447 |
| RRIRYRPPRLPRPRPRPVKSPRP | -0.84 |
| RRIRARPPRLPRPRPRPDSNPRP | 0.179 |
| RRIRARPPRLPRPRPRPWWMPRP | 0.0201 |
| RRIRLRPPRLPRPRPRPLHAPRP | 0.261 |
| RRIRWRPPRLPRPRPRPIGFPRP | 0.0993 |
| RRIRMRPPRLPRPRPRPQTTPRP | 0.634 |
| RRIRQRPPRLPRPRPRPAHNPRP | -0.0225 |
| RRIRRRPPRLPRPRPRPQKLPRP | 0.102 |
| RRIRGRPPRLPRPRPRPFNSPRP | 0.0167 |
| RRIRKRPPRLPRPRPRPGHLPRP | 0.0738 |
| RRIRNRPPRLPRPRPRPEIGPRP | 0.195 |
| RRIRERPPRLPRPRPRPIMYPRP | -1.08 |
| RRIRVRPPRLPRPRPRPQYQPRP | -0.302 |
| RRIRPRPPRLPRPRPRPELKPRP | 0.0877 |
| RRIRKRPPRLPRPRPRPQRIPRP | 0.0286 |
| RRIRARPPRLPRPRPRPSTHPRP | -0.0532 |
| RRIRYRPPRLPRPRPRPAAHPRP | -0.134 |
| RRIRSRPPRLPRPRPRPEQHPRP | -0.101 |
| RRIRPRPPRLPRPRPRPWNKPRP | 0.163 |
